Consider 13 molecules from US20190015483A1 (CSL BEHRING RECOMBINANT FACILITY, published 2019).

Changes are numbered by the printed parent chain. Names and notes keep the numbering of the source.

First the molecules themselves.
B1: Hu-vWF[764-1270]-8His S764P-L765R-S766I (other)
chain: PRICRPPMVKLVCPADNLRAEGLECTKTCQNYDLECMSMGCVSGCLCPPGMVRHENRCVALERCPCFHQGKEYAPGETVKIGCNTCVCRDRKWNCTDHVCDATCSTIGMAHYLTFDGLKYLFPGECQYVLVQDYCGSNPGTFRILVGNKGCSHPSVKCKKRVTILVEGGEIELFDGEVNVKRPMKDETHFEVVESGRYIILLLGKALSVVWDRHLSISVVLKQTYQEKVCGLCGNFDGIQNNDLTSSNLQVEEDPVDFGNSWKVSSQCADTRKVPLDSSPATCHNNIMKQTMVDSSCRILTSDVFQDCNKLVDPEPYLDVCIYDTCSCESIGDCACFCDTIAAYAHVCAQHGKVVTWRTATLCPQSCEERNLRENGYECEWRYNSCAPACQVTCQHPEPLACPVQCVEGCHAHCPPGKILDELLQTCVDPEDCPVCEVAGRRFASGKKVTLNPSDPEHCQICHCDVVNLTCEACQEPGGLVVPPTDAPVSPTTLYVEDISEPPLHDFHHHHHHHH
B2: Hu-vWF[764-1270]-8His S766W-L809I (other)
chain: B1 chain with P1S, R2L, I3W, L46I
B3: Hu-vWF[764-1270]-8His S766W-L809A (other)
chain: B1 chain with P1S, R2L, I3W, L46A
B4: Hu-vWF[764-1270]-8His S764P-L765T-S766I (other)
chain: B1 chain with R2T
B5: Hu-vWF[764-1270]-8His S766W-L809F (other)
chain: B1 chain with P1S, R2L, I3W, L46F
B6: Hu-vWF[764-1270]-8His S764P-L765V-S766I (other)
chain: B1 chain with R2V
B7: Hu-vWF[764-1270]-8His S766W-L809K (other)
chain: B1 chain with P1S, R2L, I3W, L46K
B8: Hu-vWF[764-1270]-8His S766W-L809D (other)
chain: B1 chain with P1S, R2L, I3W, L46D
B9: Hu-vWF[764-1270]-8His S766W-L809G (other)
chain: B1 chain with P1S, R2L, I3W, L46G
B10: Hu-vWF[764-1270]-8His S766W-L809H (other)
chain: B1 chain with P1S, R2L, I3W, L46H
B11: Hu-vWF[764-1270]-8His S766W-L809E (other)
chain: B1 chain with P1S, R2L, I3W, L46E
B12: Hu-vWF[764-1270]-8His S764P-L765W-S766I (other)
chain: B1 chain with R2W
B13: Hu-vWF[764-1270]-8His S764P-L765Y-S766I (other)
chain: B1 chain with R2Y

The target in this assay is T1, recombinant Factor VIII (CSL627, rVIII-SingleChain) (Homo sapiens (Human), UniProt P00451 20-2351).
T1 construct: also called FVIII
T1 sequence: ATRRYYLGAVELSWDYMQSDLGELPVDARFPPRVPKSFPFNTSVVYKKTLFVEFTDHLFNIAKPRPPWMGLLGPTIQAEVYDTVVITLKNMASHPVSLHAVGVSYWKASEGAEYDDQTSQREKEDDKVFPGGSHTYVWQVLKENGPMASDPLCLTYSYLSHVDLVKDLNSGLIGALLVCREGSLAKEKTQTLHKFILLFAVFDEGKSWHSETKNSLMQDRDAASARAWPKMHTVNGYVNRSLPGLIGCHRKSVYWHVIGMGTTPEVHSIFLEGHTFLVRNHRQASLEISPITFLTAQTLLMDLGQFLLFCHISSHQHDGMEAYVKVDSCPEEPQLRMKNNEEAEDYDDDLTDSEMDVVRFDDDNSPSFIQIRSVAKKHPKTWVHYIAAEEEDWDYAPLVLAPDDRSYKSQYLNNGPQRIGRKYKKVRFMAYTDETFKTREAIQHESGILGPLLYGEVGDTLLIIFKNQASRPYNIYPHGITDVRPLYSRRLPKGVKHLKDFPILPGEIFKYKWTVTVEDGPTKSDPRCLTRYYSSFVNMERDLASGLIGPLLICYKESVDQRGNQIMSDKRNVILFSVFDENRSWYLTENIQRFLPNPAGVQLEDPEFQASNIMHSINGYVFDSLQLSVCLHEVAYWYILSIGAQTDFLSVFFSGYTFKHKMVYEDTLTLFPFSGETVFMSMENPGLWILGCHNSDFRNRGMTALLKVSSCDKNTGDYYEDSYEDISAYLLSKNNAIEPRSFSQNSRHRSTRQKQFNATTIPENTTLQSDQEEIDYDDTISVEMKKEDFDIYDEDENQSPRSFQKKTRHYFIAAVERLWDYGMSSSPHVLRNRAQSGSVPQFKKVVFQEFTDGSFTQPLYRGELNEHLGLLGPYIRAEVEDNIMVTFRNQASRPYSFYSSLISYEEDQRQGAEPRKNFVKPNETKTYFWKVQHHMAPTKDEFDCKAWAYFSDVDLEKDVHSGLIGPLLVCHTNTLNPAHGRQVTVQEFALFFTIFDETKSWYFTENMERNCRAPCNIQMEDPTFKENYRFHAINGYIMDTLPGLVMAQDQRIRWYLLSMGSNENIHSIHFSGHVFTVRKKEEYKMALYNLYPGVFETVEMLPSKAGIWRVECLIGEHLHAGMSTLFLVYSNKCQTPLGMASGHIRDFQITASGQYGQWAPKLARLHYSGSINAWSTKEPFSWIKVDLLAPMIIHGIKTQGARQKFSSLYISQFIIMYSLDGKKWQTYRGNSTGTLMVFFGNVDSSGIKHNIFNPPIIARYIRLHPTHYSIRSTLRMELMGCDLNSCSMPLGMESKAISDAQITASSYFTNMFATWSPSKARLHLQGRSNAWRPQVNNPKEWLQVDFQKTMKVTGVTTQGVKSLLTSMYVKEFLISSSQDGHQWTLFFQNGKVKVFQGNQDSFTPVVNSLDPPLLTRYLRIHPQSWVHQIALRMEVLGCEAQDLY
Briefly: SPR, anti-His capture, FVIII injected, 37 C. The method, then: Binding kinetics were investigated by surface plasmon resonance using a Biacore 4000 biosensor at 37° C. Each mutant was captured from cell culture medium to a density of 40-150 RU on a CM-5 sensor chip pre-immobilised with anti-His antibody (14,000 RU). In an initial screening study, FVIII was injected over the captured mutants for 5 minutes at 1 nM and dissociation monitored for 5 minutes.
All sensorgrams were double referenced by subtraction of signals from a reference spot (containing only immobilised anti His antibody) and from a blank injection. Binding kinetics were determined by fitting the double referenced sensorgrams to a 1:1 kinetic model.
Background: In SPR one partner is held on a chip, and binding of the other changes the refractive index at the surface.
The term Kd denotes a measure of binding affinity in units of concentration. The term koff denotes the rate constant with which the complex falls apart. The term kon denotes the second-order rate constant of association. For the molecule B1, the Kd came to 0.218 nM, the koff stood at 0.0173 s⁻¹ and the kon amounted to 7.96e+07 M⁻¹ s⁻¹.

Turning to B2, the Kd worked out at 0.103 nM, the koff turned out to be 0.000541 s⁻¹ and the kon was determined as 5.23e+06 M⁻¹ s⁻¹.

For the molecule B3, the Kd is 0.258 nM, the dissociation rate constant (koff) is 0.00115 s⁻¹ and the kon was found to be 4.45e+06 M⁻¹ s⁻¹.

Take B4: the Kd came out at 0.0287 nM, the koff came out at 0.00331 s⁻¹ and the kon is 1.15e+08 M⁻¹ s⁻¹.

B5: the Kd is 0.228 nM, the koff came to 0.000744 s⁻¹ and the kon is 3.26e+06 M⁻¹ s⁻¹.

For the molecule B6, the Kd was found to be 0.00207 nM, the koff is 0.000116 s⁻¹ and the kon was 5.62e+07 M⁻¹ s⁻¹.

In the case of B7, the Kd worked out at 0.219 nM, the koff came to 0.00153 s⁻¹ and the association rate constant (kon) is 7e+06 M⁻¹ s⁻¹.

Regarding B8, the Kd is 0.425 nM, the off-rate (koff) turned out to be 0.0019 s⁻¹ and the kon is 4.46e+06 M⁻¹ s⁻¹.

Regarding B9, the Kd amounted to 0.363 nM, the koff was determined as 0.00226 s⁻¹ and the kon turned out to be 6.21e+06 M⁻¹ s⁻¹.

With B10, the Kd came out at 0.397 nM, the dissociation rate constant (koff) stood at 0.00114 s⁻¹ and the kon was determined as 2.87e+06 M⁻¹ s⁻¹.

On to B11, for which the Kd is 0.265 nM, the koff is 0.00155 s⁻¹ and the kon was 5.84e+06 M⁻¹ s⁻¹.

Turning to B12, the Kd was 0.132 nM, the koff is 0.000146 s⁻¹ and the kon came out at 1.11e+06 M⁻¹ s⁻¹.

Regarding B13, the Kd stood at 0.0367 nM, the koff is 0.0019 s⁻¹ and the kon is 5.17e+07 M⁻¹ s⁻¹.
